Results reported in PMC5374404, “A key centriole assembly interaction interface between human PLK4 and STIL appears to not be conserved in flies” (Biology Open, 2017).
Values joined by “and” are separate entries in the source; they are usually repeats but may differ in a detail not shown here. Equal values may be shown once. Blank lines part the entries; values can stand above or below the binder they belong to. Ends that are not written are not given here.

Tests used:
[1] = biological target: T1, Drosophila Sak/PLK4 Polo-Box-3 domain (aa 657-745), tag cleaved (Drosophila melanogaster (Fruit fly), UniProt O97143); experiment: analytical gel filtration
T1 chain: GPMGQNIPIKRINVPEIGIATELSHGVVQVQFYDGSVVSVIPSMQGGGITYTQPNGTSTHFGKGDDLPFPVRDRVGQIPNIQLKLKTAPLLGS

[2] = biological target: the molecule itself; experiment: crystal structure; STIL 726-750 alone, 0.91 Å; sitting drop, 19°C; tetramer (dimer of dimers) generated by crystallographic symmetry
[3] = biological target: the molecule itself; experiment: SEC-MALS; STIL CCD (aa 717-758) alone, 100 µl injected at 62 to 4000 µM over an S200 10/300 column; 50 mM Tris pH 7.5, 150 mM NaCl, 2 mM DTT, 0.4 ml/min
[4] = biological target: the molecule itself; experiment: SEC-MALS; apo HsPB3 (aa 884-970) alone, 100 µl at 200 µM over a Superdex 200 10/300 column; 50 mM Tris pH 7.5, 150 mM NaCl, 2 mM DTT

- binding result [1]: no binding
Binder: NKSDLAALVSLVESVRHEQQQLRNLCEMILEQQQRAK (protein, also: His-lipoyl-tagged) [His-lipoyl-tagged Drosophila Ana2 coiled-coil domain (aa 193-229)]

B1: human STIL coiled-coil domain (aa 726-750), tag cleaved (domain or fragment)
chain: GGSLTEQDRQLRLLQAQIQRLLEAQSLM
notes: remnant left at the N-terminus of the CCD after TEV cleavage of the His-lipoyl tag; STIL, human, coiled-coil domain, residues 726-750; also called STIL^726-750; HsCCD; source: E. coli C41, purified (Ni-NTA, TEV cleavage, reverse Ni-NTA, size exclusion); not shown: His, N-terminal, cleaved; lipoyl domain (B. stearothermophilus dihydrolipoamide acetyltransferase), N-terminal, cleaved
- stoichiometry N [2]: 4

B2: human STIL coiled-coil domain (aa 717-758), tag cleaved (domain or fragment)
chain: GGSGLSPDAYRFLTEQDRQLRLLQAQIQRLLEAQSLMPCSPKTTA
notes: remnant left at the N-terminus of the CCD after TEV cleavage of the His-lipoyl tag; STIL, human, coiled-coil domain, residues 717-758; also called HsCCD; STIL CCD; source: E. coli C41, purified (Ni-NTA, TEV cleavage, reverse Ni-NTA, size exclusion); not shown: His, N-terminal, cleaved; lipoyl domain (B. stearothermophilus dihydrolipoamide acetyltransferase), N-terminal, cleaved
- stoichiometry N [3]: ≥ 2 and < 4

B3: human PLK4 Polo-Box-3 domain (aa 884-970), tag cleaved (domain or fragment)
chain: GPMGSAQLLKSVFVKNVGWATQLTSGAVWVQFNDGSQLVVQAGVSSISYTSPNGQTTRYGENEKLPDYIKQKLQCLSSILLMFSNPTPNFH
notes: remnant left at the N-terminus of the PB3 construct after 3C cleavage of the His-MBP tag; PLK4, human, Polo-Box-3 domain, residues 884-970; from an E. coli codon-optimised cDNA (Geneart); also called HsPB3; apoHsPB3; source: E. coli B834, purified (Ni-NTA, 3C cleavage, reverse Ni-NTA, size exclusion); not shown: His, N-terminal, cleaved; MBP, N-terminal, cleaved
- stoichiometry N [4]: 2
